Experimental data published in patent publication EP4588939A1 (Universitat de Barcelona, dated 2025).

T1: human IL13Rα2 (interleukin-13 receptor subunit alpha-2) (human, UniProt Q14627 27-380)
T1 construct: whole, on cells; also called IL13Ra2
T1 sequence (looked up): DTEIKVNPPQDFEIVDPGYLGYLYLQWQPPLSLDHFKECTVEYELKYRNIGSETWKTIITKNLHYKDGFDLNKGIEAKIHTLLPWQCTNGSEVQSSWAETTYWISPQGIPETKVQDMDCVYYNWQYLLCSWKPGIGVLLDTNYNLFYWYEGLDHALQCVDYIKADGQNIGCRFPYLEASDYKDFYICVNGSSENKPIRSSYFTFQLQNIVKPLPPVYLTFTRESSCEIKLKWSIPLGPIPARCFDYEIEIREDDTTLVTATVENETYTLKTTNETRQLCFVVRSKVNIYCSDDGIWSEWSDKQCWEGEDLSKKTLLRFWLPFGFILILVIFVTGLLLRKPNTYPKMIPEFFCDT


These binders were tested against T1, human IL13Rα2 (interleukin-13 receptor …) (assay: flow cytometry of hybridoma supernatants on IL13Rα2-transfected 300.19 cells; specificity further validated on IL13Rα2-transfected COS cells and U251 cells).

Binder | binding result
46A murine anti-IL13Rα2 monoclonal antibody (antibody, V domains shown, Tested as hybridoma supernatant; also called IL13Rα2_46A; clone 46A) VH: QVQLKQSGPGLVQPSQSLSITCTVSGFSITKYGVHWVRLSPGKGLEWLGVIWSGGSTDYNAAFISRLNISKDNSKSQVFFKMNSLQANDTAIYYCARDFGDTMDYWGQGTSVTVSS VL: QIVLTQSPAIMSASLGERVTMTCTASSSVTSSYLHWYQQKPGSSPKLWIFSTSNLASGVPARFSGSGSGTSYSLTISSMEAEDAATYYCHQYHRSPLTFGAGTKLELK | binds
82B murine anti-IL13Rα2 monoclonal antibody (antibody, V domains shown, Tested as hybridoma supernatant; also called IL13Rα2_82B; clone 82B) VH: QVQLKQSGPGLVQPSQSLSITCTVSGFSLTSYGVHWVRQSPGKGLEWLGVIWSGGSTDYNAAFISRLSISKDNSKSQVFFKMNSLQANDTAIYYCARDRYDAFDYWGQGTTLTVSS VL: QIVLTQSPAIMSASLGERVTMTCTASSSVSSSYLHWYQQKPGSSPKLWIYSTSNLASGVPARFSGSGSGTSYSLTISSMEAEDAATYYCHQYHRSPLTFGAGTKLELK | binds

Further lines, results first:

binding result | Binder
binds | 6A murine anti-IL13Rα2 monoclonal antibody (antibody, V domains shown, Tested as hybridoma supernatant; also called IL13Rα2_6A; clone 6A) VH: EVQLQQSGPELVKPGASVKISCKTSGYTFTEYTMHWVKQSHGKSLEWIGIINPNNGGTNYNQKFKGKATLTVDKSSSTAYMELRSLTSEDSAVYYCARPSATHYFDYWGQGTTLTVSS VL: DIKMTQSPSSMYASLGERVTITCKASQDIKSYLSWFQQKPGKSPKTLIYRANRLVDGVPSRFSGSGSGQDYSLTISSLEYEDMGIYYCLQYDEFPLTFGAGTKLELK
binds | 143A murine anti-IL13Rα2 monoclonal antibody (antibody, V domains shown, Tested as hybridoma supernatant; also called IL13Rα2_143A; clone 143A) VH: DVQLVESGGGLVQPGGSRKLSCAASGFTFSSFGMHWVRQAPEKGLEWVAYISSGSSTIYYADTVKGRFIISRDNPKNTLFLQMTSLRSEDTAMYYCARKYEGYAMDYWGQGTSVTVSS VL: DIKMTQSPSSMYASLGERVTITCKASQDINSYLSWFQQKPGKSPKTLIYRANRLVDGVPSRFSGSGSGQDYSLTISSLEYEDMGIYSCLQYDEFPLTFGAGTKLELK
